Results on one substance are retold here after paper PMC10299379.

Assay [1] concerns the target EBV LMP1-C (latent membrane protein 1, C-terminal domain, amino acids 186-387) (Epstein-Barr virus) (UniProt P03230). Nature of the assay: SPR; Biacore T200; LMP1-C and LMP2A-N immobilised on sensor chip CM5 as ligands; affibody molecules injected as analytes in serial dilutions; 1:1 Langmuir fit.
Assay [2] has as its target EBV LMP2A-N (latent membrane protein 2A, N-terminal domain, amino acids 1-119) (Epstein-Barr virus) (UniProt P13285). The description is as above.
Chain of UniProt P13285 (P13285 1-119): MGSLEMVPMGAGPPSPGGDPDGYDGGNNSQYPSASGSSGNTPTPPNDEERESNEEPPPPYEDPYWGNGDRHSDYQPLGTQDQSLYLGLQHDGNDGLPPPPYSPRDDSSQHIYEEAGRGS

Chain of UniProt P03230 (P03230 186-386): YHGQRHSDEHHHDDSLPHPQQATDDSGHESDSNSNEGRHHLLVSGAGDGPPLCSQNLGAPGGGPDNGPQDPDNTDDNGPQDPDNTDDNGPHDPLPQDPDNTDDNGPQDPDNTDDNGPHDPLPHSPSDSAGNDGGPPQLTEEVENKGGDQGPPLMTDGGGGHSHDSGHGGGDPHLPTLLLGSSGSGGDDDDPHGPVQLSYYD

As usually defined, the koff is a measure of how fast the partners let go of each other. A lower koff goes with a long-lived complex. On to “SPA-Z scaffold (ZWT) (domain or fragment)”, for which the koff is 0.00246 s⁻¹ in assay [1] and 5.97e-05 s⁻¹ in assay [2].
